Laboratory results published in patent US20150299276A1.

How the values were obtained:
[1] = target: rat α6/α3β2β3 nAChR (rat), P12390; test: cell-based or functional assay
[2] = target: rat α6/α3β4 nAChR (rat), P12392; test: cell-based or functional assay

GCCSDPPCRNKHPDLCG (modifications not checked) [α-conotoxin TxIB/Txd4(G)]
IC50 (half-blocking dose) of ACh-gated current, Xenopus oocytes [1]: 247 nM
Ratio (IC50 of TxIB(G) / IC50 of TxIB) [1]: 8.7
IC50 (half-blocking dose) of ACh-gated current, Xenopus oocytes [2]: > 10000 nM

GCCSDPPCRNKHPDLC (modifications not checked) [α-conotoxin TxIB/Txd4]
IC50 (half-blocking dose) of ACh-gated current, Xenopus oocytes [1]: 28.4 nM
Ratio (IC50 of TxIB(G) / IC50 of TxIB) [1]: 1
IC50 (half-blocking dose) of ACh-gated current, Xenopus oocytes [2]: > 10000 nM
